What was measured:
[1] = system: T1, peptide construct comprising the Abl substrate GEAIYAAPFA (SEQ ID NO:13) with C-terminal FLAG tag
T1 sequence: GEAIYAAPFADYKDDDDK

[2] = system: 1,557 peptides that contain no tyrosine residues (3,243-plex peptide construct set)
[3] = system: peptide construct with HCV polyprotein 8-mer EVVTSTWV (SEQ ID NO:11)
[4] = system: peptide construct with HCV polyprotein 8-mer VVCCSMSY (SEQ ID NO:10)
[5] = system: peptide construct with HCV polyprotein 8-mer MEECSQHL (SEQ ID NO:8)
[6] = system: peptide construct with HCV polyprotein 8-mer TTPCSGSW (SEQ ID NO:9)
[7] = system: peptide construct with HCV polyprotein 8-mer EAIYQCCD (SEQ ID NO:12)
[8] = system: T2, peptide construct with Cortactin 10-mer VYSMEAADYR (SEQ ID NO:19)
T2 sequence: VYSMEAADYR

[9] = system: T3, peptide construct with Cortactin 10-mer QVSSAYQKTV (SEQ ID NO:20)
T3 sequence: QVSSAYQKTV

[10] = system: T4, peptide construct with Cortactin 10-mer GHYPAEDSTY (SEQ ID NO:17)
T4 sequence: GHYPAEDSTY

[11] = system: T5, peptide construct with Cortactin 10-mer GTEPEPVYSM (SEQ ID NO:18)
T5 sequence: GTEPEPVYSM

[12] = system: T6, peptide construct with Cortactin 10-mer GLAYATEAVY (SEQ ID NO:16)
T6 sequence: GLAYATEAVY

[13] = system: T7, peptide construct comprising the enterokinase substrate AGDDDDKAG (SEQ ID NO:2)
T7 sequence: CAAGDDDDKAG

[14] = system: T8, peptide construct comprising the thrombin substrate GLVPRGSAG (SEQ ID NO:1)
T8 sequence: CAGLVPRGSAG

[15] = system: peptides containing thrombin cleavage sites (whole yeast peptide construct set from S. cerevisiae genomic DNA)

ABL1 tyrosine kinase
relative qPCR signal {2^[Ct(untreated)-Ct(test)]} after biotin labelling of phosphotyrosine and capture on streptavidin beads [1]: The qPCR signal was ~2-fold higher for the kinase-treated preparation, relative to the untreated preparation
relative qPCR signal {2^[Ct(untreated)-Ct(test)]} after capture on anti-phosphotyrosine antibody beads [1]: The qPCR signal was significantly higher (~120-fold) for the kinase-treated preparation, relative to the untreated preparation
phosphorylation, capture on anti-phosphotyrosine beads and sequencing counts [2]: None of the 1557 negative peptides were detected in the assays

NS3 (hepacivirin) protease of hepatitis C virus
protease cleavage, release from beads and sequencing counts [3]: the undetected site, EVVTSTWV (SEQ ID NO:11), is known to be cleaved only in cis
protease cleavage, release from beads and sequencing counts (SEQ ID NO 24): map of peptide cleavage sites identified by assaying overlapping 8-mer peptides of HCV polyprotein (SEQ ID NOS:22, 23, 24, 25, 8, 26, 9, 27, 10, 28, 12, and 29
protease cleavage, release from beads and sequencing counts (SEQ ID NO 29): map of peptide cleavage sites identified by assaying overlapping 8-mer peptides of HCV polyprotein (SEQ ID NOS:22, 23, 24, 25, 8, 26, 9, 27, 10, 28, 12, and 29
protease cleavage, release from beads and sequencing counts (SEQ ID NO 25): map of peptide cleavage sites identified by assaying overlapping 8-mer peptides of HCV polyprotein (SEQ ID NOS:22, 23, 24, 25, 8, 26, 9, 27, 10, 28, 12, and 29
protease cleavage, release from beads and sequencing counts [4]: cleavage of 3 of the 4 known sites published in the MEROPS database was detected
protease cleavage, release from beads and sequencing counts (SEQ ID NO 27): map of peptide cleavage sites identified by assaying overlapping 8-mer peptides of HCV polyprotein (SEQ ID NOS:22, 23, 24, 25, 8, 26, 9, 27, 10, 28, 12, and 29
protease cleavage, release from beads and sequencing counts (SEQ ID NO 26): map of peptide cleavage sites identified by assaying overlapping 8-mer peptides of HCV polyprotein (SEQ ID NOS:22, 23, 24, 25, 8, 26, 9, 27, 10, 28, 12, and 29
protease cleavage, release from beads and sequencing counts [5]: cleavage of 3 of the 4 known sites published in the MEROPS database was detected
protease cleavage, release from beads and sequencing counts [6]: cleavage of 3 of the 4 known sites published in the MEROPS database was detected
protease cleavage, release from beads and sequencing counts (SEQ ID NO 28): map of peptide cleavage sites identified by assaying overlapping 8-mer peptides of HCV polyprotein (SEQ ID NOS:22, 23, 24, 25, 8, 26, 9, 27, 10, 28, 12, and 29
protease cleavage, release from beads and sequencing counts (SEQ ID NO 22): map of peptide cleavage sites identified by assaying overlapping 8-mer peptides of HCV polyprotein (SEQ ID NOS:22, 23, 24, 25, 8, 26, 9, 27, 10, 28, 12, and 29
protease cleavage, release from beads and sequencing counts (SEQ ID NO 23): map of peptide cleavage sites identified by assaying overlapping 8-mer peptides of HCV polyprotein (SEQ ID NOS:22, 23, 24, 25, 8, 26, 9, 27, 10, 28, 12, and 29
protease cleavage, release from beads and sequencing counts [7]: Peptide EAIYQCCD (SEQ ID NO:12) represents a peptide substrate that does not fit the known HCV NS3 protease consensus

SRC tyrosine kinase
phosphorylation, capture on anti-phosphotyrosine beads and sequencing counts [8]: Two more sites were identified (GTEPEPVYSM (SEQ ID NO: 18) and VYSMEAADYR (SEQ ID NO: 19))
phosphorylation, capture on anti-phosphotyrosine beads and sequencing counts [9]: the third known site that was not detected (QVSSAYQKTV (SEQ ID NO: 20))
phosphorylation, capture on anti-phosphotyrosine beads and sequencing counts [2]: None of the 1557 negative peptides were detected in the assays
phosphorylation, capture on anti-phosphotyrosine beads and sequencing counts [10]: Two of the three Src phosphorylation sites (GLAYATEAVY (SEQ ID NO: 16) and GHYPAEDSTY (SEQ ID NO: 17)) were detected
phosphorylation, capture on anti-phosphotyrosine beads and sequencing counts [11]: Two more sites were identified (GTEPEPVYSM (SEQ ID NO: 18) and VYSMEAADYR (SEQ ID NO: 19))
phosphorylation, capture on anti-phosphotyrosine beads and sequencing counts [12]: Two of the three Src phosphorylation sites (GLAYATEAVY (SEQ ID NO: 16) and GHYPAEDSTY (SEQ ID NO: 17)) were detected

enterokinase
protease cleavage, PAGE of reaction products [13]: When treated with enterokinase, the peptide construct comprising the enterokinase substrate was cleaved
protease cleavage, PAGE of reaction products [14]: neither the control nor the peptide construct comprising the thrombin substrate were cleaved

thrombin
protease cleavage, sequence analysis of released constructs [15]: Sequence analysis demonstrated a significant enrichment of peptides containing thrombin cleavage sites
protease cleavage, PAGE of reaction products [13]: neither the control nor the peptide construct comprising the enterokinase substrate was cleaved
protease cleavage, PAGE of reaction products [14]: then treated with thrombin, the peptide construct comprising the thrombin substrate was cleaved

From patent US20140051589
